In data set [1] the target is T1, IGF2BP3 (recombinant GST fusion) (UniProt O00425 1-579). In words: competition; against biotin-circITGB6 (1 uM), protein 1 uM; EMSA: 10 mM HEPES pH 7.3, 20 mM KCl, 1 mM MgCl2, 1 mM DTT; competition: 150 mM NaCl, 20 mM Tris-HCl pH 7.5, 1.5 mM MgCl2, 1 mM DTT, 10% glycerol, 4 °C; pull-down at 4 °C, wash 20 mM Tris-HCl pH 7.5, 1 mM EDTA, 450 mM NaCl. The conditions noted are these: tags: GST (pGEX-6P-1). On the technique in general: In EMSA bound probe runs differently from free probe, usually more slowly.
T1 sequence (O00425 whole entry, the tested form may be a part): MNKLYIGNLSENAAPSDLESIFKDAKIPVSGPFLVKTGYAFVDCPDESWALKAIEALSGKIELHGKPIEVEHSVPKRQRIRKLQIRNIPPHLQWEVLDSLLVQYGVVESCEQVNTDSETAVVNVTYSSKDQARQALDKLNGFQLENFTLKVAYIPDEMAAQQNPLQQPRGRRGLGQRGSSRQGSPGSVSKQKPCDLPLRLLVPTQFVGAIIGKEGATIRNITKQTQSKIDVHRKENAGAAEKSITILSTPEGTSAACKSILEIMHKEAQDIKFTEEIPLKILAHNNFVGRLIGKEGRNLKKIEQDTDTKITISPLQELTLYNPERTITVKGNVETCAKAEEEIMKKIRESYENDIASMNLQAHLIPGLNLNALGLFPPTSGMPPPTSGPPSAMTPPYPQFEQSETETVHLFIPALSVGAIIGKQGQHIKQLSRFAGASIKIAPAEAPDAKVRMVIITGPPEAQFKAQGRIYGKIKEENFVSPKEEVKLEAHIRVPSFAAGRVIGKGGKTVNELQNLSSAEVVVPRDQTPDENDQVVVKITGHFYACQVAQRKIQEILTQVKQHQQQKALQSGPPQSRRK

For data set [2], the target named is T1, IGF2BP3 (recombinant GST fusion). In words: pull-down; EMSA: 10 mM HEPES pH 7.3, 20 mM KCl, 1 mM MgCl2, 1 mM DTT; competition: 150 mM NaCl, 20 mM Tris-HCl pH 7.5, 1.5 mM MgCl2, 1 mM DTT, 10% glycerol, 4 °C; pull-down at 4 °C, wash 20 mM Tris-HCl pH 7.5, 1 mM EDTA, 450 mM NaCl. The conditions noted are these: protein: recombinant; tags: GST (pGEX-6P-1); label: 3' biotin.

The target is the same in data set [3]. The experiment in a line: competition; displaces biotin-circITGB6 (1 uM), protein 1 uM; EMSA: 10 mM HEPES pH 7.3, 20 mM KCl, 1 mM MgCl2, 1 mM DTT; competition: 150 mM NaCl, 20 mM Tris-HCl pH 7.5, 1.5 mM MgCl2, 1 mM DTT, 10% glycerol, 4 °C; pull-down at 4 °C, wash 20 mM Tris-HCl pH 7.5, 1 mM EDTA, 450 mM NaCl. The conditions noted are these: tags: GST (pGEX-6P-1).

Consider 3 molecules from PMC10613289, “A circular RNA activated by TGFβ promotes tumor metastasis through enhancing IGF2BP3-mediated PDPN mRNA stability”.

Regarding ACUAGCUGGUGCGACCAUCAGUGAAGAAGA (ssRNA) [M2 competitor, unlabeled], the binding result in data set [1] was “no binding”.
In the case of ACUCUAAACGGAGCUGCAUUGAGUGCCACC (ssRNA) [M1 (M1-WT) probe], in data set [2], the binding result was “binds”.
Turning to ACUCUAAACGGAGCUGCAUUGAGUGCCACC (ssRNA) [M1 competitor, unlabeled], in data set [3], the binding result is “binds”.
